What was measured:
human CD3 [1] = target: T1, human CD3 (human, UniProt P07766 23-207; P09693 23-182; P04234 22-171); test: cell-based or functional assay
human CD3 [2] = target: T1, human CD3; test: flow competition on Jurkat, 100 nM unlabeled mAb; competitor AF488-SK7 1.5 nM
Procedure, shortened: (§1)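 Jurkat cells incubated with a fixed concentration of AF488-labeled anti-CD3 mAb plus 100 nM unlabeled mAb, with competition read by flow cytometry as impaired labeled-mAb binding. In-house AF488-OKT3 mIgG2b was desalted and checked for integrity by UPLC-SEC.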

human CD3 [3] = target: T1, human CD3; test: flow competition on Jurkat, 100 nM unlabeled mAb; competitor AF488-OKT-3 mIgG2b 1.5 nM
Procedure, shortened: as §1

human CD3 [4] = target: T1, human CD3; test: flow competition on Jurkat, 100 nM unlabeled mAb; competitor AF488-SP34.2 20 nM
Procedure, shortened: as §1

human CD3 [5] = target: T1, human CD3; test: flow competition on Jurkat, 100 nM unlabeled mAb; competitor AF488-UCHT1 5 nM
Procedure, shortened: as §1

human CD3 [6] = target: T1, human CD3; test: cell-based or functional assay; remark: listed apart in the source
human CD3 [7] = target: T1, human CD3; test: apparent KD (KDapp), flow cytometry titration on Jurkat cells
Procedure, shortened: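 Jurkat cells incubated 2 h on ice with 1/3 serial dilutions of purified mouse mAbs from 300 nM, then FITC anti-mouse Fc F(ab′)2 for 1 h. Binding read by flow cytometry on 2,000 viable single cells, with propidium iodide exclusion.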

human CD3 [8] = target: T1, human CD3; test: flow cytometry, hybridoma supernatant on CD3+ Jurkat cells
Procedure, shortened: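 Hybridoma supernatants stained onto CD3+ Jurkat T-cells and analysed by flow cytometry; specific binding taken as mean fluorescence intensity increase over CD3-negative J.RT3-T3.5 cells. Mouse IgG and anti-GFP supernatant served as negative controls, AF488-labelled OKT3 as positive control.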

human CD3 [9] = target: T1, human CD3; test: apparent KD (KDapp), flow cytometry titration on purified primary human T cells
Procedure, shortened: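 Freshly isolated human T cells from PBMCs (negative pan-T selection), 1×10⁵ per test, stained 2 h at 4 °C with eight-point mAb dilutions from 300 or 100 nM, then APC anti-mouse IgG secondary 30 min. Background-subtracted flow MFI fitted by one-site specific binding with Hill slope for KDapp.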

Binder | IC50, indirect ADC surrogate growth inhibition (anti-mouse-DM1) on Jurkat cells (human CD3 [1]) [nM] | Span, indirect ADC surrogate growth inhibition on Jurkat cells (human CD3 [1]) [%] | % residual fluorescence of labeled mAb (human CD3 [2]) [%] | % residual fluorescence of labeled mAb (human CD3 [3]) [%] | % residual fluorescence of labeled mAb (human CD3 [4]) [%] | % residual fluorescence of labeled mAb (human CD3 [5]) [%] | % max ref. OKT3 (dTomato activation) (human CD3 [6]) [%] | EC50 of dTomato induction (CD69 promoter), Jurkat-CD69-dTomato cells, 24 h (human CD3 [6]) [µg/mL] | Kd (human CD3 [7]) [nM] | MFI (human CD3 [8]) [MFI] | Kd (human CD3 [9]) [nM]
F332-4D6 (antibody, mouse IgG2a, V domains shown, also called F332-4D6-2; F322-4D6) VH: QVQLQQSGAELGKPGTSVKLSCKASGYTFTSYWIHWVKQRPGQGLEWIGNINPNSGSTNYNEKFKRKATLTADKSSSTAYMQLSTLTSEDFAVYYCTRDTSGQYYFDYWGQGTTLTVSS VL: DIVMSQSPSSLAVSAGEKVTMSCKSSQSLLNSRTRKNYLAWYQQKPGQSPKVLIYWASTRESGVPDRFTGSGSGTDFTLTISSVQAEDLAVYYCKQSYHLRTFGGGTKLEIK | 0.038 | 92 | 44 | 78 | 9 | 76 | 87 | 0.18 | 0.5 | 398 | 0.53
F332-6D7 (antibody, mouse IgG2a, V domains shown, also called F332-6D7-2; F332-6D7 (7G4)) VH: QVQLQQPGAELGKPGTSVNLSCKASGYTFTSYWMHWVKQRPGQGLDWIGNINPNSGTTNYNEKFKSKATLTVDKSSSTAYMQLSTLTSEDSAVYYCTRDISGQYYFDYWGQGTSLTVSS VL: DIVMSQSPSSLAVSAGEKVTMSCKSSQSLLNSRTRKNYLAWYQQKPGQSPKLLIYWASTRESGVPDRFTGSGSGTDFTLTISSVQAEDLAVYYCKQSYSLRTFGGGSKLEIK | 0.072 | 96 | 44 | 89 | 10 | 73 | 86 | 0.25 | 0.8 | 247 | 0.46
F332-5F2 (antibody, mouse IgG2b, V domains shown, also called F332-5F2-2; F332-5F2 (6G8, 13A3)) VH: QVQLQQPGAELGKPGTSVKLSCKASGYTFTSYWMHWVKQRPGQGLEWIGNINPNGGDSNYNEKFKSKATLTVDKSSSTAYMQLSTLTSEDSAVYYCTRDISGQYYFDFWGQGTSLTVFS VL: DILMSQSPSSLAVSAGEQVTMSCKSSQSLLNSRTRKNYLAWYQQKPGQSPKLLIFWASTRKSGVPDRFTGSGSGTYFTLTISSVQAEDLAVYYCTQSYNLRTFGGGTKLEIK | 0.173 | 95 | 49 | 90 | 9 | 74 | 98 | 0.19 | 0.4 | 292 | 0.37
F332-7C5 (antibody, mouse IgG2a, V domains shown, also called F332-7C5-2; F332-7C5 (5E12, 10A8)) VH: QVQLQQPGAELGKPGTSVKLSCKASGYTFTSYWMHWVKQRPGQGLEWIGNINPSSGITNYNERFKNKATLTVDKSSTTAYMQLSILTSEDSAVYYCSRDISGQYYFNFWGQGTTLTVSS VL: DIVMSQSPSSLAVSAGEKVTMSCKSSQSLLNSRTRKNYLAWYQQKPGQSPKLLIYWASTRESGVPDRFTGTGSGTDFTLTISSVQAEDLAVYYCKQSYNLRTFGGGTKLEIK | 0.062 | 95 | 39 | 79 | 7 | 64 | 102 | 0.23 | 0.6 | 334 | 0.41
F332-7C9 (antibody, mouse IgG2a, V domains shown, also called F332-7C9-2; F332-7C9 (5C7, 7D10)) VH: QVQLQQSGPELVKPGASVRISCKASGYTFTSHYLHWVKQRPGQGFEWIGWIYPGDGNTRYNEKFKDRATLTADKSSSTAYLHLSSLTSEDSAVYFCARDAGYYFDYWGQGTTLAVSS VL: DIVMSQSPSSLAVSAGEKVTMSCKSSQSLLNSRTRKNYLAWYQQKPGQSLKVLIYWASTRESGVPDRFTGSGSGTDFTLTISSVQAEDLAVYYCKQSYSLRTFGGGTKLEIK | 0.045 | 96 | 42 | 82 | 9 | 68 | 91 | 0.24 | 0.5 | 285 | 0.16

From patent US20250051443A1 (NATIONAL RESEARCH COUNCIL OF CANADA, published 2025)
